# According to paper PMC280649 (BMC Biochemistry, 2003):
# “And” between values parts separate entries of the source, which are not always exact repeats. Identical values can stand only once.
# B1: mCD147d0-2rCD4d3+4 (mouse CD147 domains 0 to 2 fused to rat CD4 domains 3 and 4) (domain or fragment, UniProt P18572 22-325, looked up)
# chain: AAGFLKAPLSQERWAGGSVVLHCEAVGSPIPEIQWWFEGNAPNDSCSQLWDGARLDRVHIHAAYRQHAASSLSVDGLTAEDTGTYECRASSDPDRNHLTRPPRVKWVRAQASVVVLEPGTIQTSVQEVNSKTQLTCSLNSSGVDIVGHRWMRGGKVLQEDTLPDLHTKYIVDADDRSGEYSCIFLPEPVGRSEINVEGPPRIKVGKKSEHSSEGELAKLVCKSDASYPPITDWFWFKTSDTGEEEAITNSTEANGKYVVVSTPEKSQLTISNLDVNVDPGTYVCNATNAQGTTRETISLRVRSR
# modifications: biotin on the C-terminal biotinylation sequence (BirA enzyme) in the immobilised copy; the soluble copy was unbiotinylated
# How the values were obtained:
# [1] = molecular target: CAR (Homo sapiens) (UniProt P78310); details: cited from earlier work
# [2] = molecular target: CD31 (Homo sapiens) (UniProt P16284); details: cited from earlier work
# [3] = molecular target: CD150 (Homo sapiens) (UniProt Q13291); test: SPR; details: cited from earlier work
# [4] = molecular target: NCAM (UniProt P13591); details: cited from earlier work
# [5] = molecular target: the molecule itself; test: SPR
# [6] = molecular target: the molecule itself; test: SPR; remark: listed apart in the source
molecule,measurement,setting,value
CAR (from UniProt P78310),Kd,[1],16 µM
CD31 (from UniProt P16284),Kd,[2],12.5 µM
CD150 (from UniProt Q13291),Kd,[3],200 µM
NCAM (from UniProt P13591),Kd,[4],100 µM
B1,koff,[5],0.7 s⁻¹
same,t1/2,[5],1 s
same,Kd,[6],39 µM and 35 µM
